Results: the DeepSol protein solubility set

Test: soluble on expression in E. coli; label from the status in PepcDB or PDB records

Sequence	soluble on expression in E. coli
MESTLQIMPVQRTSRNFGEYAEEAVIIEEPIIKQKRPLFIEANTIEASLEHLRNDCIIPVFAKDNEATLSHVAFIEAVQDATNTFFSGEQIESPDIRVSHVIKGRIPEAIHKPANQLLESDKTIYYERCAFVIEVPTIYETVHGNRLTLTIGGVRAYNHTNLYSKKGAERFKVFIGFTCKVCTNLCVSTDGYLSCLEVTNTRDLYQAVLEMFHKYDAAKHIHLMQSLGNTSMTEHQFCQLLGRMRLYQSLPQGYQKDIPKMLLTDTQVNNVARAYINDENFGSLGNDLSMWKLYNLLTGANKSSYIDSFLDRAYNATELATGICSALHGDNKYQWFLS	not soluble
EIFSQELTQREANVKKVHENLEELQKKLDHTSFAHKEDRDRLEAQIAQKEQEQKAKLAEYDQKVQNEFDARERAEREREAARGDAAAEKQRLASLLKDLEDDASGYNRLRPSKPMLSEEDTNILRQLFLSSAVSGSGKFSFQDLKQVLAKYADTIPEGPLKKLFVMVENDTKGRMSYITLVAVANDLAALVADFRKIDTNSNGTLSRKEFREHFVRLGFDKKSVQDALFRYADEDESDDVGFSEYVHLGLCLLVLRILYAFADFDKSGQLSKEEVQKVLEDAHIPESARKKFEHQFSVVDVDDSKSLSYQEFVMLVLLMFHDD	soluble
MSQTTTNPHVAVLAFPFSTHAAPLLAVVRRLAAAAPHAVFSFFSTSQSNASIFHDSMHTMQCNIKSYDISDGVPEGYVFAGRPQEDIELFTRAAPESFRQGMVMAVAETGRPVSCLVADAFIWFAADMAAEMGVAWLPFWTAGPNSLSTHVYIDEIREKIGVSGIQGREDELLNFIPGMSKVRFRDLQEGIVFGNLNSLFSRMLHRMGQVLPKATAVFINSFEELDDSLTNDLKSKLKTYLNIGPFNLITPPPVVPNTTGCLQWLKERKPTSVVYISFGTVTTPPPAEVVALSEALEASRVPFIWSLRDKARVHLPEGFLEKTRGYGMVVPWAPQAEVLAHEAVGAFVTHCGWNSLWESVAGGVPLICRPFFGDQRLNGRMVEDVLEIGVRIEGGVFTKSGLMSCFDQILSQEKGKKLRENLRALRETADRAVGPKGSSTENFITLVDLVSKPKDV	soluble
PTSSTTATLVMGDALAVALLKARGFTAEDFALSHPGGALGRKLLLRVNDIMHTGDEIPHVKKTASLRDALLEVTRKNLGMTVICDDNMMIEGIFTDGDLRRVFDMGVDVRRLSIADVMTPGGIRVRPGILAVEALNLMQSRHITSVMVADGDHLLGVLHMHDLLRA	not soluble
MPVTQEEIIAGIAEIIEEVTGIEPSEITPEKSFVDDLDIDSLSMVEIAVQTEDKYGVKIPDEDLAGLRTVGDVVAYIQKLEEENPEAAQALRAKIESENPDAVANVQARLEAESK	soluble
MGSDKIHHHHHHMIKILVDNTAYKKFFAQHGFSALIEINNKRILFDAGQNSITLRENLRLFNEKEGFDYIVLSHGHYDHCDGLKYVIENDLINGKVIAHKDAFLDKYAGNRYIGIDEEIKEYLLKKADLEIIEEPYKIDKDIIVSGYVPREYEYEMEEFQCIKDGKRVKDEVNDDMFLIAKGILITGCSHSGIINVVEYGKKLSEIKGVLGGFHLVGVSDNYLNRIVDYFKSQDFWIMPMHCTGFKALTKLSQLNNFVYGHVGKIIGI	not soluble
ACGYSDRVLQLTLGNSTITTQEAANSVVAYGRWPEFIRDDEANPVDQPTEPDVATCRFYTLDTVMWGKESKGWWWKLPDALRDMGLFGQNMYYHYLGRSGYTVHVQCNASKFHQGALGVFAIPEYCLAGDSDKQRYTSYANANPGERGGKFYSQFNKDNAVTSPKREFCPVDYLLGCGVLLGNAFVYPHQIINLRTNNSATIVLPYVNALAIDSMVKHNNWGIAILPLSPLDFAQDSSVEIPITVTIAPMCSEFNGLRNVTAPKFQ	soluble
LTSGNINIGNLKVGNDYPMRVLGEIVHVPWLSKEELEEKVNYYVESGADMIDLGMVSNEDYSKDLKQIIKTVRDITDKPVSVDTLNTKELIEAVNLDVDMILSVDSGNFDELLPYLKEKNTVSVVLPTNYKTNEVPKKISEKIQNMEKILEKFKENDLLAVADPILEPINNSGCNFTESVIACYEFKKRNNIPMFFGIGNVTELFDVDSNGVNASIAAIGQEIGGNILFTPEASKKCKFSIKELKTASKMLFLAKKRNSLP	not soluble
QQFHWVNDGYADFDGFLAALSSRKRKAIRKERAQAQGFGGQIRELTGGDLRPEHWDAFWRFYQDTGARKWGSPYLTRAFFDIAHQTMADDMVLVLAERDGIPVAGALNFIGREALFGRYWGCVEHHPCLHFELCYYRAIDWAIAHGLARVEAGAQGEHKLARG	not soluble
